{"source": "paper PMC2774669", "about": "(Microbial Cell Factories, 2009)", "biological_target": "the molecule itself", "assay": "aggregation kinetics by turbidity", "data": [{"protein": "HET-s prion forming domain (PFD), HET-s(218-289) (domain or fragment, Podospora anserina, UniProt Q03689 218-289, looked up, also called HET-s PFD) KIDAIVGRNSAKDIRTEERARVQLGNVVTAAALHGGIRISDQTTNSVETVVGKGESRVLIGNEYGGKGFWDN", "values": [{"measurement": "binding result", "result": "binds"}]}]}
